# Residue numbers refer to the chain shown, from its start.
# B1: anti-VEGFR2-AF fully human antibody (hAb) (antibody, human IgG1)
# heavy: not shown
# light: DIQMTQSPSSLSASVGDRVTITCKASDDIINYLNWYQQKPGEAPKLLIYDASILETGVPSRFSGSGSGTDFTFTISSLQPEDIATYYCQQLDDIPITFGGGTKLEIK
# notes: also called anti-VEGFR2-AF hAb; R2S12-AF in human IgG1 backbone; not shown: kappa constant region of vector p-Kappa-HuGs
# B2: anti-VEGFR2 fully human antibody (hAb) (antibody)
# heavy: not shown
# light: B1 light with L91Y, D93I, I94L, I96L
# notes: also called anti-VEGFR2 hAb; R2S12 in human IgG1 backbone; not shown: kappa constant region of vector p-Kappa-HuGs
# B3: R2PC45 (scFv, V domains shown)
# VH: QVNLRESGGGVVQPGRSLRLSCAASGFTFSSYAMHWVRQAPGKGLEWVAVISYDGSNKYYADSVKGRFTISRDNSKNTLYLQMNSLRAEDTAVYYCAREQDYGSSSGDAFDIWGQGTMVTVSS
# VL: DIQMTQSPSSLSASVGDRVTITCRASQRISSYLNWYQQKPGKAPKLLIYDASNLQSGVPSRFSGSGSGTDFTLTINGLQPDDFAIYFCHQSYSAPPTFGQGTKVEIK
# notes: also called anti-VEGFR2 scFv phage clone 45
# Columns and labels:
# [1] = target: T1, VEGFR2-Fc recombinant protein (R&D Systems) (human, UniProt P35968 20-764); experiment: SPR, BIACORE T100, VEGFR2-Fc coupled to CM5 chip, IgG as analyte
# T1 construct: Bought protein; also called VEGFR2 recombinant protein; immobilized VEGFR2; not shown: Fc part of the bought fusion protein; not described
# T1 sequence (P35968 20-764 limits assumed): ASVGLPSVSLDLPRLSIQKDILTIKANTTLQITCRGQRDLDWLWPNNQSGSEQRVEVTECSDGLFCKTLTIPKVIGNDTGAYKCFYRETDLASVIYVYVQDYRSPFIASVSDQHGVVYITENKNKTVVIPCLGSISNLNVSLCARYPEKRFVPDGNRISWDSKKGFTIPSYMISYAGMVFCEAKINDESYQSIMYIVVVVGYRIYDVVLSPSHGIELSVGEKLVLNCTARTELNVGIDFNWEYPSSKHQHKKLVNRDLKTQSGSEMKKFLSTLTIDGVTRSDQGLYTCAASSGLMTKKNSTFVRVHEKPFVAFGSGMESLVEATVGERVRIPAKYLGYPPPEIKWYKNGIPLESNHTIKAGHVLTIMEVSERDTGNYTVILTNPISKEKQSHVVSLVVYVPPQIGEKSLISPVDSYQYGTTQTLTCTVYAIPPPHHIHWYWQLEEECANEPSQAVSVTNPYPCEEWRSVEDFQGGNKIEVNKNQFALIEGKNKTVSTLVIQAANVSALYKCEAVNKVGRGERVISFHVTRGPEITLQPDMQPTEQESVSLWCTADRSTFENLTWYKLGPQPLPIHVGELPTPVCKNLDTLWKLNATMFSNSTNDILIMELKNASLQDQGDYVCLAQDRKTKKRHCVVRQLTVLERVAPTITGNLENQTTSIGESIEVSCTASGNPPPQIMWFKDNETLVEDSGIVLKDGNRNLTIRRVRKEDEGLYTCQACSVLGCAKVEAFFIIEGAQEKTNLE
# Procedure: (§1) The affinity and kinetics of anti-VEGFR2 antibodies were measured by surface plasmon resonance in a BIACORE T100™ (GE healthcare). VEGFR2-Fc protein was coupled to an EDC- and NHS-activated CM5 sensor chip in a BIACORE flow cell, and then blocked with ethanolamine according to the manufacturer's directions. Associated and dissociated phases were monitored under continuous flow of 30 μl/min, using antibody concentrations ranging from 0.1 to 100 nM for 5 min. Regeneration was performed by injection of regenerate buffer (0.2 M NaCl, 10 mM glycine, pH 2.7). To determine binding constants, the sensorgrams were fit globally to a sample 1:1 interaction model using BIAevaluation software (GE healthcare).
# (§2) We analyzed the affinity of both human antibodies to VEGFR2 using a BIACORE T100™.
# [2] = target: T1, VEGFR2-Fc recombinant protein (R&D …); experiment: solid-phase competitive ELISA: antibody against 4 nM VEGF-A on immobilized VEGFR2
# [3] = target: T1, VEGFR2-Fc recombinant protein (R&D …); experiment: surface plasmon resonance, BIACORE T100, VEGFR2-Fc coupled to a CM5 chip, purified IgG as analyte
# Procedure: as §1, §2
# [4] = target: T2, c-Met-Fc control protein (UniProt P08581 25-932, limits assumed); experiment: phage ELISA on coated MET-Fc, anti-M13-HRP detection
# T2 construct: Bought control protein; also called Met-Fc (R&D); c-Met-Fe; not shown: Fc part of the bought fusion protein; not described
# T2 sequence (P08581 25-932 limits assumed): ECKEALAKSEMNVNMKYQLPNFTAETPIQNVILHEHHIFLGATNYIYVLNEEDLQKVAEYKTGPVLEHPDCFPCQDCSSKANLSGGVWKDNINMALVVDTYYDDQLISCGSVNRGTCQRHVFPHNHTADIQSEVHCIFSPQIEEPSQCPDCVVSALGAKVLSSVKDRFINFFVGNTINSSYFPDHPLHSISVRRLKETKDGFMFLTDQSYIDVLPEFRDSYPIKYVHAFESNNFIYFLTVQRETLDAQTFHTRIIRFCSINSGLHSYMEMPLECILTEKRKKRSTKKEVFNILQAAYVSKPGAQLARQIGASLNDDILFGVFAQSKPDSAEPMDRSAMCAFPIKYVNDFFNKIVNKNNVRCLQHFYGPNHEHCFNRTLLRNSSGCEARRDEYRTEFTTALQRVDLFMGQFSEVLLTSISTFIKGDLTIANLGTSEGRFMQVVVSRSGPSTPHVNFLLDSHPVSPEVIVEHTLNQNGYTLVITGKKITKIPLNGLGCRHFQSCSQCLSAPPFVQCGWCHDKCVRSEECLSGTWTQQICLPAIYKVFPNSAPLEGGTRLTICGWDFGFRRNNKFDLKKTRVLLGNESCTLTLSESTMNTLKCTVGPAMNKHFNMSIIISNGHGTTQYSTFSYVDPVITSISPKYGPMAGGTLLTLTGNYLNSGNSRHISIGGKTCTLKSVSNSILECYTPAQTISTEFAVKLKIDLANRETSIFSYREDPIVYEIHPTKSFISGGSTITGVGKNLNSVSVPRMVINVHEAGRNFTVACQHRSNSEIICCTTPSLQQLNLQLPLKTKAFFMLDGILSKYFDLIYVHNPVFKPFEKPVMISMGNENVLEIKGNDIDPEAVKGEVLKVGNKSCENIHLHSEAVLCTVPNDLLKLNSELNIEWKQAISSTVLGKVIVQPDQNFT
# Procedure: (§3) The selected phages were further examined by ELISA screening. The 96-well plates were coated with […] of VEGFR2-Fc, Met-Fc (R&D), or BSA (Sigma) protein in 0.1 M sodium bicarbonate overnight at 4° C. After blocking with 1% BSA in PBS (w/v) for 2 hr at room temperature, 70-randomly selected phage clones were added to the plates at a 1:2 dilution in 1% BSA, and incubated for 1 hr at room temperature. Following washes with PBST, the plates were incubated with a 1:2000 dilution of horseradish peroxidase (HRP)-conjugated mouse anti-M13 phage antibody (GE) for 1 hr. After washing with PBST, the colorimetric reaction was developed with the peroxidase substrate ortho-phenylenediamine (OPD; Sigma) plus H₂O₂ for 15 min, and then terminated by the addition of 3 N HCl. The absorbance at 490 nm was determined using a microplate reader (SpectraMax, Molecular Devices). Plasmid DNA of positive clones were isolated and sequenced using the pCANTAB5 sequencing primer set.
# (§4) After four rounds of affinity selection (biopanning), the titer of bound phage increased by as much as 3,455-fold (FIG. 1A).
# [5] = target: T1, VEGFR2-Fc recombinant protein (R&D …); experiment: phage ELISA, 1x10^9 cfu phage on coated VEGFR2-Fc, anti-M13-HRP detection
# Procedure: as §3, §4
# [6] = target: T3, VEGFR2 on the cell surface of human umbilical vein endothelial cells (HUVEC) (human, UniProt P35968 20-1356); experiment: flow cytometry on HUVECs, 1x10^10 cfu phage, anti-M13 and PE-labelled secondary antibody
# T3 construct: Endogenous receptor of human cells; also called cell-surface VEGFR2; cellular VEGFR2
# T3 sequence (P35968 20-1356 limits assumed): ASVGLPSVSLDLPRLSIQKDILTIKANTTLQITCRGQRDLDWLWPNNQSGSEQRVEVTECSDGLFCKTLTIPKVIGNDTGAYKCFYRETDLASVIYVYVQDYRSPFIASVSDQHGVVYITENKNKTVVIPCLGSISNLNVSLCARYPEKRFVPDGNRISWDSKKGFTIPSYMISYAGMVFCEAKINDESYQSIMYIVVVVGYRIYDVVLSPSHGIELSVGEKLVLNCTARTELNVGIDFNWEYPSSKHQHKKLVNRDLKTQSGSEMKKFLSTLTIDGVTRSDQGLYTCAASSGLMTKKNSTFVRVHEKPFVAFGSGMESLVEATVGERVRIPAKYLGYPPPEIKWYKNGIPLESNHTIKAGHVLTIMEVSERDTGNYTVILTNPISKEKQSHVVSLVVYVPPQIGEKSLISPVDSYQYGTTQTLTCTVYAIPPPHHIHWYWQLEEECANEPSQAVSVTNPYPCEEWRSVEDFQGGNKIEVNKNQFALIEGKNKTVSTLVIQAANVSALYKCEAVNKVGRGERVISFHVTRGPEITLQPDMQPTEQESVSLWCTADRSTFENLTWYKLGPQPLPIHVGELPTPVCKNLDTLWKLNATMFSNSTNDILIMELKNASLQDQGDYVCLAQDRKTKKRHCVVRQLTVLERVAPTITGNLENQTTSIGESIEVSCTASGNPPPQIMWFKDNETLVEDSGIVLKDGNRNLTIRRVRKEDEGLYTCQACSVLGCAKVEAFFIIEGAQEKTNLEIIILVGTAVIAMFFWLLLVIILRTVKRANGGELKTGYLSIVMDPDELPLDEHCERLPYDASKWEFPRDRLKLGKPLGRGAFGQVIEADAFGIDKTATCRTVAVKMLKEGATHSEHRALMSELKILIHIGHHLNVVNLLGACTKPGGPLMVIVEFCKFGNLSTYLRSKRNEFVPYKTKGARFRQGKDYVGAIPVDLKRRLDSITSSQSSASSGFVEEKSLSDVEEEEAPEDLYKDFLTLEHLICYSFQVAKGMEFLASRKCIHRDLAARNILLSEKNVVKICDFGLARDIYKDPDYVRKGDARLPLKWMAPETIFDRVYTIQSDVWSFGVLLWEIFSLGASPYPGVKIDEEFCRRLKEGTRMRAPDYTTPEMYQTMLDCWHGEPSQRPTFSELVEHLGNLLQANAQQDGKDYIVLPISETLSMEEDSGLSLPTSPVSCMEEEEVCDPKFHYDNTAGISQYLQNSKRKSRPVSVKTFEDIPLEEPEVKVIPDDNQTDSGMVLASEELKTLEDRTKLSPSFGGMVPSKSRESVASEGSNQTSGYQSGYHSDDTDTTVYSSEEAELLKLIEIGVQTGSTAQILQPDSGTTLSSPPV
# Procedure: About 1×10⁴ HUVEC were incubated with the selected anti-VEGFR2 phage clones at 4° C. for 1 hour in FACS buffer (PBS containing 1% fetal bovine serum). After the cells were washed with FACS buffer, they were first incubated with mouse anti-M13 phage Ab for 1 hr at 4° C., and then with R-phycoerythrin-conjugated goat anti-mouse IgG (Jackson Immuno Research) for 30 min at 4° C. Flow cytometry was performed with a FACSCantoII (BD), and emission fluorescence intensity was measured with FACS Diva software (BD) to quantitatively compare binding affinities.
# as §4
Binder,Kd [1] [nM],IC50 [2] [nM],koff [3] [s⁻¹],kon [3] [M⁻¹ s⁻¹],binding result [4],binding result [5],binding result [6]
B1,0.264,0.88,0.000442,1.67e+06,–,–,–
B2,2.1,1.87,0.000472,225000,–,–,–
B3,–,–,–,–,no binding (tested: 1x10^9 cfu),binds,binds

# — US20180127504A1 (ACADEMIA SINICA, published 2018)
